Among the data in publication PMC7181697, “Molecular basis for assembly of the shieldin complex and its implications for NHEJ” (Nature Communications, 2020) are binding result and Kd values, retold here.

Holding throughout (settings): both partners purified
For test [1], the target named is T1, REV7^E35A-SHLD3(1–82)-REV7^K129A (human, UniProt Q9UI95 1-211; Q6ZNX1 1-82; Q9UI95 1-211, E35A | K129A).
T1 construct: REV7 (MAD2B, MAD2L2), human, full length; the C-REV7 of the dimer; SHLD3, human, residues 1-82; cloned without His-tag; the O-REV7 of the dimer; also called E35A-1–82 + K129A; reconstituted conformational dimer; source: reconstituted from purified REV7^E35A-SHLD3(1–82) and purified REV7^K129A (both E. coli BL21(DE3)); copies: + +
Nature of the test: SEC; Superdex 200 Increase 10/300 GL, 20 mM Tris/HCl pH 8.0, 150 mM NaCl, 1% glycerol, 1 mM TCEP; proteins mixed and incubated 10 min on ice; 0.5 ml fractions on SDS-PAGE, Coomassie.

Test [2] deals with T2, REV7^K44A-SHLD3(1–82)-REV7^K129A (human, UniProt Q9UI95 1-211; Q6ZNX1 1-82; Q9UI95 1-211, K44A | K129A).
T2 construct: REV7 (MAD2B, MAD2L2), human, full length; the C-REV7 of the dimer; SHLD3, human, residues 1-82; cloned without His-tag; the O-REV7 of the dimer; also called K44A-1–82 + K129A; reconstituted conformational dimer; source: reconstituted from purified REV7^K44A-SHLD3(1–82) and purified REV7^K129A (both E. coli BL21(DE3)); copies: + +
The test is described as above.

Another test deals with T3, REV7^K129A (human, UniProt Q9UI95 1-211, K129A).
T3 construct: REV7 (MAD2B, MAD2L2), human, full length; also called O-REV7 (as used in the ITC and SEC experiments); source: E. coli BL21(DE3), purified (Ni-IDA, SEC); alone or co-expressed with SHLD3(1-82)
Nature of the test: ITC; ITC200, 25 °C, 20 mM Tris pH 8.0, 150 mM NaCl, 1% glycerol, 1 mM TCEP; one set of sites model.

Test [3] deals with T1, REV7^E35A-SHLD3(1–82)-REV7^K129A. The test is described as above.
The target of a further test is T4, MBP-REV7^K129A (human, UniProt Q9UI95 1-211, K129A).
T4 construct: REV7 (MAD2B, MAD2L2), human; The cloning of this construct is not described in the methods; also called O-REV7; source: E. coli BL21(DE3), purified (Ni-IDA, SEC)
Nature of the test: SEC; Superdex 200 Increase 10/300 GL, 20 mM Tris/HCl pH 8.0, 150 mM NaCl, 1% glycerol, 1 mM TCEP; proteins mixed and incubated 10 min on ice; 0.5 ml fractions on SDS-PAGE, Coomassie.

Test [4] deals with T5, REV7^K44A-SHLD3(1–82)^F38A (human, UniProt Q9UI95 1-211; Q6ZNX1 1-82, K44A | F38A).
T5 construct: REV7 (MAD2B, MAD2L2), human, full length; SHLD3, human, residues 1-82; cloned without His-tag; source: E. coli BL21(DE3), co-expressed (pETduet), purified (Ni-IDA, SEC)
Briefly: ITC; ITC200, 25 °C, 20 mM Tris pH 8.0, 150 mM NaCl, 1% glycerol, 1 mM TCEP; one set of sites model.

The target of test [5] is T6, REV7^K44A-SHLD3(1–82)^FIPWFP/AIAAAA (human, UniProt Q9UI95 1-211; Q6ZNX1 1-82, K44A | FIPWFP/AIAAAA).
T6 construct: REV7 (MAD2B, MAD2L2), human, full length; SHLD3, human, residues 1-82; the FXPWFP motif stands at 38-43; cloned without His-tag; also called REV7^K44A-SHLD3(1–82)^5A; source: E. coli BL21(DE3), co-expressed (pETduet), purified (Ni-IDA, SEC)
The description is as above.

The target in the next test is T7, REV7^K44A-SHLD3(45–82) (human, UniProt Q9UI95 1-211; Q6ZNX1 45-82, K44A).
T7 construct: REV7 (MAD2B, MAD2L2), human, full length; SHLD3, human, residues 45-82; cloned without His-tag; source: E. coli BL21(DE3), co-expressed (pETduet), purified (Ni-IDA, SEC)
The test is described as above.

For another test, the target named is T8, REV7^W171A (human, UniProt Q9UI95 1-211, W171A).
T8 construct: REV7 (MAD2B, MAD2L2), human, full length; source: E. coli BL21(DE3), purified (Ni-IDA, SEC); alone or co-expressed with SHLD3(1-82)
Described as above.

Test [6] deals with T9, REV7 (full length, wild type) (human, UniProt Q9UI95 1-211).
T9 construct: REV7 (MAD2B, MAD2L2), human, full length; Two copies (closed C-REV7 and open O-REV7) stand in the crystal structure 6KTO; also called REV7^WT; MAD2B; source: E. coli BL21(DE3), purified (Ni-IDA, SEC); alone or co-expressed with SHLD3 and SHLD2 truncations
The test is described as above.

In the next test the target is T10, REV7^Y63A (human, UniProt Q9UI95 1-211, Y63A).
T10 construct: REV7 (MAD2B, MAD2L2), human, full length; source: E. coli BL21(DE3), purified (Ni-IDA, SEC); alone or co-expressed with SHLD3(1-82)
The test is described as above.

T1 sequence (Q9UI95 whole entry E35A, chain 1 of 2, the tested form may be a part): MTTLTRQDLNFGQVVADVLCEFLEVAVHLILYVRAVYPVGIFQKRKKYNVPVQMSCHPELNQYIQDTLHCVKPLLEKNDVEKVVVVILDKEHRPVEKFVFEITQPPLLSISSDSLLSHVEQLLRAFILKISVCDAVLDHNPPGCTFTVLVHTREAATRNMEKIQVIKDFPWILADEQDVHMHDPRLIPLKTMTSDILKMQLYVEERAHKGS
T1 sequence (Q9UI95 whole entry K129A, chain 3 of 2, the tested form may be a part): as the sequence (Q9UI95 whole entry E35A, chain 1 of 2, the tested form may be a part) above, with A35E, K129A counted along it
T9 sequence (Q9UI95 whole entry, the tested form may be a part): as the sequence (Q9UI95 whole entry E35A, chain 1 of 2, the tested form may be a part) above, with A35E counted along it
T8 sequence (Q9UI95 whole entry W171A): as the sequence (Q9UI95 whole entry E35A, chain 1 of 2, the tested form may be a part) above, with A35E, W171A counted along it
T10 sequence (Q9UI95 whole entry Y63A): as the sequence (Q9UI95 whole entry E35A, chain 1 of 2, the tested form may be a part) above, with A35E, Y63A counted along it
T4 sequence (Q9UI95 whole entry K129A): as the sequence (Q9UI95 whole entry E35A, chain 1 of 2, the tested form may be a part) above, with A35E, K129A counted along it
T3 sequence (Q9UI95 whole entry K129A): as the sequence (Q9UI95 whole entry E35A, chain 1 of 2, the tested form may be a part) above, with A35E, K129A counted along it
T6 sequence (Q9UI95 whole entry K44A, the tested form may be a part, one chain of several): as the sequence (Q9UI95 whole entry E35A, chain 1 of 2, the tested form may be a part) above, with A35E, K44A counted along it
T2 sequence (Q9UI95 whole entry K44A, chain 1 of 2, the tested form may be a part): as the sequence (Q9UI95 whole entry E35A, chain 1 of 2, the tested form may be a part) above, with A35E, K44A counted along it
T2 sequence (Q9UI95 whole entry K129A, chain 3 of 2, the tested form may be a part): as the sequence (Q9UI95 whole entry E35A, chain 1 of 2, the tested form may be a part) above, with A35E, K129A counted along it
T7 sequence (Q9UI95 whole entry K44A, the tested form may be a part, one chain of several): as the sequence (Q9UI95 whole entry E35A, chain 1 of 2, the tested form may be a part) above, with A35E, K44A counted along it
T5 sequence (Q9UI95 whole entry K44A, the tested form may be a part, one chain of several): as the sequence (Q9UI95 whole entry E35A, chain 1 of 2, the tested form may be a part) above, with A35E, K44A counted along it

B1: MBP-SHLD2(1–60) (domain or fragment, human, UniProt Q86V20 1-60, looked up)
chain: MSGGSQVHIFWGAPIAPLKITVSEDTASLMSVADPWKKIQLLYSQHSLYLKDEKQHKNLE
notes: SHLD2, human, residues 1-60; Modified pET28a(+) with His6-MBP tag; also called MBP-1–60; source: E. coli BL21(DE3), purified (Ni-IDA, SEC); not shown: MBP, N-terminal, kept
Consider B1, for which the binding result in test [1] and in test [2] was “binds” in each case.

B2: REV3(1847-1906) (domain or fragment, human, UniProt O60673 1847-1906, looked up)
chain: MLTPTPDSSPRSTSSPSQSKNGSFTPRTANILKPLMSPPSREEIMATLLDHDLSETIYQE
notes: amplified from cDNA of Jurkat cells; The methods name two vectors for REV3 truncations (His6-MBP and C-terminal His6); also called RBM1 of REV3; source: E. coli BL21(DE3), purified (Ni-IDA, SEC)
Consider B2, for which, in the test with REV7^K129A, the binding result was “binds”. This molecule displayed a dissociation constant Kd in [3] of 46 nM.

B3: MBP-REV3(1847-1906) (domain or fragment, human, UniProt O60673 1847-1906, looked up)
chain: MLTPTPDSSPRSTSSPSQSKNGSFTPRTANILKPLMSPPSREEIMATLLDHDLSETIYQE
notes: Modified pET28a(+) with His6-MBP tag; source: E. coli BL21(DE3), purified (Ni-IDA, SEC)
For the molecule B3, the binding result with MBP-REV7^K129A is listed as “binds”.

B4: cREV1 CTD (chimeric REV1 CTD: POL κ RIR fused to the N-terminus of REV1 CTD) (other, UniProt Q9UBT6 562-577, looked up)
chain: SHKKSFFDKKRSERKWGLSSLQSDPAGCVRPPAPNLAGAVEFNDVKTLLREWITTISDPMEEDILQVVKYCTDLIEEKDLEKLDLVIKYMKRLMQQSVESVWNMAFDFILDNVQVVLQQTYGSTLKVT
notes: source: E. coli BL21(DE3), purified (Ni-IDA, SEC)
Consider B4, for which the Kd was found to be 6500 nM in test [4], 1100 nM in test [5] and 1400 nM with REV7^K44A-SHLD3(45–82).

B5: SHLD3(1–82) with C-terminal His6-tag (domain or fragment, human, UniProt Q6ZNX1 1-82, looked up)
chain: MTTEVILHYRPCESDPTQLPKIAEKAIQDFPTRPLSRFIPWFPYDGSKLPLRPKRSPPVISEEAAEDVKQYLTISEHDAKSH
notes: SHLD3, human, residues 1-82; SHLD3(1-82) expressed alone for biochemical studies (pET28a(+)); source: E. coli BL21(DE3), purified (Ni-IDA, SEC)
As for B5, the Kd was around 200 nM in the test with REV7^W171A, around 130 nM in test [6] and around 200 nM in the test with REV7^Y63A.
